Measurements as given in patent publication US20250361326A1 (Hoffmann-La Roche, published 2025).

B1: anti-bio/anti-fluos bispecific antibody (exchange reaction: bio MHCFcRP-knob-E357K row x fluos MHCFcRP-hole-K370E column) (bispecific antibody, human IgG1, kappa)
heavy 1: not shown
light 1: DIQMTQSPSSLSASVGDRVTITCRASGNIHNYLSWYQQKPGKVPKLLIYSAKTLADGVPSRFSGSGSGTDFTLTISSLQPEDVATYYCQHFWSSIYTFGQGTKLEIKRTVAAPSVFIFPPSDEQLKSGTASVVCLLNNFYPREAKVQWKVDNALQSGNSQESVTEQDSKDSTYSLSSTLTLSKADYEKHKVYACEVTHQGLSSPVTKSFNRGEC
heavy 2: not shown
light 2: DIVMTQTPLSLSVTPGQPASISCKSSQSLVHSNGNTYLRWYLQKPGQSPKVLIYKVSNRVSGVPDRFSGSGSGTDFTLKISRVEAEDVGVYYCSQSTHVPWTFGQGTKLEIKRTVAAPSVFIFPPSDEQLKSGTASVVCLLNNFYPREAKVQWKVDNALQSGNSQESVTEQDSKDSTYSLSSTLTLSKADYEKHKVYACEVTHQGLSSPVTKSFNRGEC
notes: Product of the 2/3-IgG exchange reaction, tested as reaction mix; human IgG1 knob-into-hole format; also called bio/fluos bsAb
B2: anti-fluos/anti-bio bispecific antibody (exchange reaction: fluos MHCFcRP-knob-E357K row x bio MHCFcRP-hole-K370E column) (bispecific antibody, human IgG1, kappa)
heavy 1: not shown
light 1: DIVMTQTPLSLSVTPGQPASISCKSSQSLVHSNGNTYLRWYLQKPGQSPKVLIYKVSNRVSGVPDRFSGSGSGTDFTLKISRVEAEDVGVYYCSQSTHVPWTFGQGTKLEIKRTVAAPSVFIFPPSDEQLKSGTASVVCLLNNFYPREAKVQWKVDNALQSGNSQESVTEQDSKDSTYSLSSTLTLSKADYEKHKVYACEVTHQGLSSPVTKSFNRGEC
heavy 2: not shown
light 2: DIQMTQSPSSLSASVGDRVTITCRASGNIHNYLSWYQQKPGKVPKLLIYSAKTLADGVPSRFSGSGSGTDFTLTISSLQPEDVATYYCQHFWSSIYTFGQGTKLEIKRTVAAPSVFIFPPSDEQLKSGTASVVCLLNNFYPREAKVQWKVDNALQSGNSQESVTEQDSKDSTYSLSSTLTLSKADYEKHKVYACEVTHQGLSSPVTKSFNRGEC
notes: Product of the 2/3-IgG exchange reaction, tested as reaction mix; human IgG1 knob-into-hole format; also called fluos/bio bsAb
B3: anti-dig/anti-bio bispecific antibody (exchange reaction: dig MHCFcRP-knob-E357K row x bio MHCFcRP-hole-K370E column) (bispecific antibody, human IgG1, not shown: small tags and cut ends)
heavy 1: QVQLVESGGGLVKPGGSLRLSCAASGFTFSDYAMSWIRQAPGKGLEWVSSINIGATYIYYADSVKGRFTISRDNAKNSLYLQMNSLRAEDTAVYYCARPGSPYEYDKAYYSMAYWGQGTTVTVSSASTKGPSVFPLAPSSKSTSGGTAALGCLVKDYFPEPVTVSWNSGALTSGVHTFPAVLQSSGLYSLSSVVTVPSSSLGTQTYICNVNHKPSNTKVDKKVEPKSC
light 1: not shown
heavy 2: not shown
light 2: DIQMTQSPSSLSASVGDRVTITCRASGNIHNYLSWYQQKPGKVPKLLIYSAKTLADGVPSRFSGSGSGTDFTLTISSLQPEDVATYYCQHFWSSIYTFGQGTKLEIKRTVAAPSVFIFPPSDEQLKSGTASVVCLLNNFYPREAKVQWKVDNALQSGNSQESVTEQDSKDSTYSLSSTLTLSKADYEKHKVYACEVTHQGLSSPVTKSFNRGEC
notes: Product of the 2/3-IgG exchange reaction, tested as reaction mix; human IgG1 knob-into-hole format; also called dig/bio bsAb
B4: anti-bio/anti-PDGF bispecific antibody (exchange reaction: bio MHCFcRP-knob-E357K row x PDGF MHCFcRP-hole-K370E column) (bispecific antibody, human IgG1, not shown: small tags and cut ends)
heavy 1: not shown
light 1: DIQMTQSPSSLSASVGDRVTITCRASGNIHNYLSWYQQKPGKVPKLLIYSAKTLADGVPSRFSGSGSGTDFTLTISSLQPEDVATYYCQHFWSSIYTFGQGTKLEIKRTVAAPSVFIFPPSDEQLKSGTASVVCLLNNFYPREAKVQWKVDNALQSGNSQESVTEQDSKDSTYSLSSTLTLSKADYEKHKVYACEVTHQGLSSPVTKSFNRGEC
heavy 2: EVQLVESGGGLVQPGGSLRLSCAASGFTFSSYWMSWVRQAPEKGLEWVSTISDGGGLTYYADSVKGRFTISRDNAKNSLYLQMNSLRAEDTAVYYCAESGGYTDWLFGYWGQGTLVTVSSASTKGPSVFPLAPSSKSTSGGTAALGCLVKDYFPEPVTVSWNSGALTSGVHTFPAVLQSSGLYSLSSVVTVPSSSLGTQTYICNVNHKPSNTKVDKKVEPKSC
light 2: not shown
notes: Product of the 2/3-IgG exchange reaction, tested as reaction mix; human IgG1 knob-into-hole format; also called bio/PDGF bsAb
B5: anti-fluos/anti-dig bispecific antibody (exchange reaction: fluos MHCFcRP-knob-E357K row x dig MHCFcRP-hole-K370E column) (bispecific antibody, human IgG1, not shown: small tags and cut ends)
heavy 1: not shown
light 1: DIVMTQTPLSLSVTPGQPASISCKSSQSLVHSNGNTYLRWYLQKPGQSPKVLIYKVSNRVSGVPDRFSGSGSGTDFTLKISRVEAEDVGVYYCSQSTHVPWTFGQGTKLEIKRTVAAPSVFIFPPSDEQLKSGTASVVCLLNNFYPREAKVQWKVDNALQSGNSQESVTEQDSKDSTYSLSSTLTLSKADYEKHKVYACEVTHQGLSSPVTKSFNRGEC
heavy 2: QVQLVESGGGLVKPGGSLRLSCAASGFTFSDYAMSWIRQAPGKGLEWVSSINIGATYIYYADSVKGRFTISRDNAKNSLYLQMNSLRAEDTAVYYCARPGSPYEYDKAYYSMAYWGQGTTVTVSSASTKGPSVFPLAPSSKSTSGGTAALGCLVKDYFPEPVTVSWNSGALTSGVHTFPAVLQSSGLYSLSSVVTVPSSSLGTQTYICNVNHKPSNTKVDKKVEPKSC
light 2: not shown
notes: Product of the 2/3-IgG exchange reaction, tested as reaction mix; human IgG1 knob-into-hole format; also called fluos/dig bsAb
B6: anti-bio/anti-dig bispecific antibody (exchange reaction: bio MHCFcRP-knob-E357K row x dig MHCFcRP-hole-K370E column) (bispecific antibody, human IgG1, not shown: small tags and cut ends)
heavy 1: not shown
light 1: DIQMTQSPSSLSASVGDRVTITCRASGNIHNYLSWYQQKPGKVPKLLIYSAKTLADGVPSRFSGSGSGTDFTLTISSLQPEDVATYYCQHFWSSIYTFGQGTKLEIKRTVAAPSVFIFPPSDEQLKSGTASVVCLLNNFYPREAKVQWKVDNALQSGNSQESVTEQDSKDSTYSLSSTLTLSKADYEKHKVYACEVTHQGLSSPVTKSFNRGEC
heavy 2: QVQLVESGGGLVKPGGSLRLSCAASGFTFSDYAMSWIRQAPGKGLEWVSSINIGATYIYYADSVKGRFTISRDNAKNSLYLQMNSLRAEDTAVYYCARPGSPYEYDKAYYSMAYWGQGTTVTVSSASTKGPSVFPLAPSSKSTSGGTAALGCLVKDYFPEPVTVSWNSGALTSGVHTFPAVLQSSGLYSLSSVVTVPSSSLGTQTYICNVNHKPSNTKVDKKVEPKSC
light 2: not shown
notes: Product of the 2/3-IgG exchange reaction, tested as reaction mix; human IgG1 knob-into-hole format; also called bio/dig bsAb
B7: anti-PDGF/anti-bio bispecific antibody (exchange reaction: PDGF MHCFcRP-knob-E357K row x bio MHCFcRP-hole-K370E column) (bispecific antibody, human IgG1, not shown: small tags and cut ends)
heavy 1: EVQLVESGGGLVQPGGSLRLSCAASGFTFSSYWMSWVRQAPEKGLEWVSTISDGGGLTYYADSVKGRFTISRDNAKNSLYLQMNSLRAEDTAVYYCAESGGYTDWLFGYWGQGTLVTVSSASTKGPSVFPLAPSSKSTSGGTAALGCLVKDYFPEPVTVSWNSGALTSGVHTFPAVLQSSGLYSLSSVVTVPSSSLGTQTYICNVNHKPSNTKVDKKVEPKSC
light 1: not shown
heavy 2: not shown
light 2: DIQMTQSPSSLSASVGDRVTITCRASGNIHNYLSWYQQKPGKVPKLLIYSAKTLADGVPSRFSGSGSGTDFTLTISSLQPEDVATYYCQHFWSSIYTFGQGTKLEIKRTVAAPSVFIFPPSDEQLKSGTASVVCLLNNFYPREAKVQWKVDNALQSGNSQESVTEQDSKDSTYSLSSTLTLSKADYEKHKVYACEVTHQGLSSPVTKSFNRGEC
notes: Product of the 2/3-IgG exchange reaction, tested as reaction mix; human IgG1 knob-into-hole format; also called PDGF/bio bsAb
B8: anti-dig/anti-PDGF bispecific antibody (exchange reaction: dig MHCFcRP-knob-E357K row x PDGF MHCFcRP-hole-K370E column) (bispecific antibody, human IgG1, not shown: small tags and cut ends)
heavy 1: QVQLVESGGGLVKPGGSLRLSCAASGFTFSDYAMSWIRQAPGKGLEWVSSINIGATYIYYADSVKGRFTISRDNAKNSLYLQMNSLRAEDTAVYYCARPGSPYEYDKAYYSMAYWGQGTTVTVSSASTKGPSVFPLAPSSKSTSGGTAALGCLVKDYFPEPVTVSWNSGALTSGVHTFPAVLQSSGLYSLSSVVTVPSSSLGTQTYICNVNHKPSNTKVDKKVEPKSC
light 1: not shown
heavy 2: EVQLVESGGGLVQPGGSLRLSCAASGFTFSSYWMSWVRQAPEKGLEWVSTISDGGGLTYYADSVKGRFTISRDNAKNSLYLQMNSLRAEDTAVYYCAESGGYTDWLFGYWGQGTLVTVSSASTKGPSVFPLAPSSKSTSGGTAALGCLVKDYFPEPVTVSWNSGALTSGVHTFPAVLQSSGLYSLSSVVTVPSSSLGTQTYICNVNHKPSNTKVDKKVEPKSC
light 2: not shown
notes: Product of the 2/3-IgG exchange reaction, tested as reaction mix; human IgG1 knob-into-hole format; also called dig/PDGF bsAb
B9: anti-PDGF/anti-dig bispecific antibody (exchange reaction: PDGF MHCFcRP-knob-E357K row x dig MHCFcRP-hole-K370E column) (bispecific antibody, human IgG1, not shown: small tags and cut ends)
heavy 1: EVQLVESGGGLVQPGGSLRLSCAASGFTFSSYWMSWVRQAPEKGLEWVSTISDGGGLTYYADSVKGRFTISRDNAKNSLYLQMNSLRAEDTAVYYCAESGGYTDWLFGYWGQGTLVTVSSASTKGPSVFPLAPSSKSTSGGTAALGCLVKDYFPEPVTVSWNSGALTSGVHTFPAVLQSSGLYSLSSVVTVPSSSLGTQTYICNVNHKPSNTKVDKKVEPKSC
light 1: not shown
heavy 2: QVQLVESGGGLVKPGGSLRLSCAASGFTFSDYAMSWIRQAPGKGLEWVSSINIGATYIYYADSVKGRFTISRDNAKNSLYLQMNSLRAEDTAVYYCARPGSPYEYDKAYYSMAYWGQGTTVTVSSASTKGPSVFPLAPSSKSTSGGTAALGCLVKDYFPEPVTVSWNSGALTSGVHTFPAVLQSSGLYSLSSVVTVPSSSLGTQTYICNVNHKPSNTKVDKKVEPKSC
light 2: not shown
notes: Product of the 2/3-IgG exchange reaction, tested as reaction mix; human IgG1 knob-into-hole format; also called PDGF/dig bsAb

Assays:
VEGF [1] = target: T1, VEGF (UniProt P15692-9 27-147); test: bridging ELISA of exchange reaction mix, 1.3 µM input; VEGF coated, biocytinamid-Cy5 detection; highest value = 100%; binder has bio arm, no VEGF arm
T1 construct: also called VEGF121
T1 sequence (looked up): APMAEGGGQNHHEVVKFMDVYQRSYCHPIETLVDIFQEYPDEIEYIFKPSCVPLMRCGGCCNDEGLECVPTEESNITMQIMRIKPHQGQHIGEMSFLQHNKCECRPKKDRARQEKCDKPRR

VEGF [2] = target: T1, VEGF; test: bridging ELISA of exchange reaction mix, 1.3 µM input; VEGF coated, digoxygenin-Cy5 detection; highest value = 100%; binder has neither arm
VEGF [3] = target: T1, VEGF; test: bridging ELISA, VEGF coated, biocytinamid-Cy5 detection; binder has bio arm, no VEGF arm
VEGF [4] = target: T1, VEGF; test: bridging ELISA of exchange reaction mix, 1.3 µM input; VEGF coated, digoxygenin-Cy5 detection; highest value = 100%; binder has dig arm, no VEGF arm
VEGF [5] = target: T1, VEGF; test: bridging ELISA, VEGF coated, biocytinamid-Cy5 or digoxygenin-Cy5 detection; binder has bio and dig arms, no VEGF arm
VEGF [6] = target: T1, VEGF; test: bridging ELISA, VEGF coated, biocytinamid-Cy5 detection; binder has bio and PDGF arms, no VEGF arm
VEGF [7] = target: T1, VEGF; test: bridging ELISA of exchange reaction mix, 1.3 µM input; VEGF coated, biocytinamid-Cy5 detection; highest value = 100%; binder has neither arm
VEGF [8] = target: T1, VEGF; test: bridging ELISA, VEGF coated, digoxygenin-Cy5 detection; binder has dig arm, no VEGF arm
VEGF [9] = target: T1, VEGF; test: bridging ELISA, VEGF coated, digoxygenin-Cy5 detection; binder has dig and PDGF arms, no VEGF arm

Row | Binder | relative signal intensity (VEGF [1]) | relative signal intensity (VEGF [2]) | relative signal intensity (VEGF [4]) | relative signal intensity (VEGF [7]) | further results
1 | B1 | 9% | 7.2% |  |  | binding result (VEGF [3]): no binding (tested: 1.3 µM input molecule concentration)
2 | B2 | 10.2% | 6.5% |  |  | binding result (VEGF [3]): no binding (tested: 1.3 µM input molecule concentration)
3 | B3 | 9% |  | 6.2% |  | binding result (VEGF [5]): no binding (tested: 1.3 µM input molecule concentration)
4 | B4 | 10.1% | 6.1% |  |  | binding result (VEGF [6]): no binding (tested: 1.3 µM input molecule concentration)
5 | B5 |  |  | 6.3% | 9.4% | binding result (VEGF [8]): no binding (tested: 1.3 µM input molecule concentration)
6 | B6 | 9.3% |  | 6.2% |  | binding result (VEGF [5]): no binding (tested: 1.3 µM input molecule concentration)
7 | B7 | 10.5% | 6% |  |  | binding result (VEGF [6]): no binding (tested: 1.3 µM input molecule concentration)
8 | B8 |  |  | 7% | 9.9% | binding result (VEGF [9]): no binding (tested: 1.3 µM input molecule concentration)
9 | B9 |  |  | 5.9% | 9.2% | binding result (VEGF [9]): no binding (tested: 1.3 µM input molecule concentration)
